Target: Cdx4 F170L (kggtl240) (Danio rerio, UniProt A8KBT9 A8KBT9:1-270, F170L)
Test: EMSA; mutation prevents binding to cdx4 consensus site
Conditions: tags: TNT SP6 IVT (Promega)

Sequence of Cdx4 F170L (kggtl240) (A8KBT9 entry or part of it F170L | F170L F170L, one chain of several): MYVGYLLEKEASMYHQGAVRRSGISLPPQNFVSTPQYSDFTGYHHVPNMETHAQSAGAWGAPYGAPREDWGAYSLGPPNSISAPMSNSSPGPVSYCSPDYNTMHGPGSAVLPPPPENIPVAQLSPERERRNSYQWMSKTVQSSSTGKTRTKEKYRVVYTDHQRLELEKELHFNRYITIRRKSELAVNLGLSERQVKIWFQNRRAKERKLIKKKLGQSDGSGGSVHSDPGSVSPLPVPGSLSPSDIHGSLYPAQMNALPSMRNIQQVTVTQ

B1: consensus cdx binding site probe (dsDNA)
DNA 1: GAGAAATTTATATTGT
DNA 2: ACAATATAAATTTCTC
B1: no binding.

Source: patent US20090004163, “METHOD OF ENHANCING PROLIFERATION AND/OR HEMATOPOIETIC DIFFERENTIATION OF STEM CELLS” (THE CHILDREN'S MEDICAL CENTER CORPORATION, published 2009)
